T1: Ffh (the protein subunit of signal recognition particle, SRP), wild type, P0AGD7
T1 chain: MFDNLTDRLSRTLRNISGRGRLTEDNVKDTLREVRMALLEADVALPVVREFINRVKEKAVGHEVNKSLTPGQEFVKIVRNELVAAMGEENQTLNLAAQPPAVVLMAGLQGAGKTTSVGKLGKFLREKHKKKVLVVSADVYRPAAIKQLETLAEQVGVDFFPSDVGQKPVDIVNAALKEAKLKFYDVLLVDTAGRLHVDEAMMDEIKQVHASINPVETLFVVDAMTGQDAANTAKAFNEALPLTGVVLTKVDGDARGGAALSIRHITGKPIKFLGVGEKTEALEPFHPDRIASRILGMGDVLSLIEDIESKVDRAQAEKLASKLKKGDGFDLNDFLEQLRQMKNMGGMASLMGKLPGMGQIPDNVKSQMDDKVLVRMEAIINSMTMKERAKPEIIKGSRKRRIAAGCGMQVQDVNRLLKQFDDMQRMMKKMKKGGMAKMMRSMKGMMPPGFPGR

B1: His6-σ32 T52pBPA, P0AGB3 K51E (protein)
chain: MTDKMQSLALAPVGNLDSYIRAANAWPMLSADEERALAEKLHYHGDLEAAE
B2: His6-σ32 T52pBPA, P0AGB3 A50D (protein)
chain: MTDKMQSLALAPVGNLDSYIRAANAWPMLSADEERALAEKLHYHGDLEADK

In article PMC4823717 one finds percent of parent (parent (no dysregulation mutation) = 100) data, which are given here for 7 molecules.

For one test, the target named is T1, Ffh (the protein subunit of signal …). The experiment in a line: in vivo photo-cross-linking ([35S]Met pulse-labeling, immunoprecipitation, SDS-PAGE, phosphorimaging). The settings on record: chain shown with the change; 30 °C, M9-based medium with 1 mM pBPA, 1 mM IPTG for 6 min, [35S]Met for 1 min, UV irradiation; parent: 100; read off a plot.
Regarding MTDKMQSLALAPVGNLDSYIRAANAWPMLSADEERALAEKLHYHGDLEAD [His6-σ32 K51pBPA, P0AGB3 A50D], the percent of parent (parent (no dysregulation mutation) = 100) was determined as 7.6. On to B1, for which the percent of parent (parent (no dysregulation mutation) = 100) stood at 95. On the same count and under the same terms, then B2, with 36.

For the next test, the target named is Ffh (the protein subunit of signal recognition particle, SRP), wild type (UniProt P0AGD7). The description is as above. The settings on record: 30 °C, M9-based medium with 1 mM pBPA, 1 mM IPTG for 6 min, [35S]Met for 1 min, UV irradiation; parent: 100; read off a plot.
“His6-σ32 T52pBPA (from UniProt P0AGB3) R91P”: the percent of parent (parent (no dysregulation mutation) = 100) amounted to 76. Still for that read-out and setting: then “His6-σ32 K51pBPA (from UniProt P0AGB3) I54N”, with 53. With “His6-σ32 K51pBPA (from UniProt P0AGB3) R91P”, the percent of parent (parent (no dysregulation mutation) = 100) came to 78. On the same count and under the same terms, the result for “His6-σ32 T52pBPA (from UniProt P0AGB3) I54N” reads 43.
